From the supplement of paper PMC7877785
± gives the uncertainty stated by the source.

Experiment: self-splicing fitness, log relative to wild type (ln ratio); higher = more splicing; Tetrahymena group I intron in knt gene, E. coli kanamycin selection, DiMSum; sequences stand for … in CUCUCU…GGAGGGAAAAGUUAUCAGGCAUGCACCUGGUAGCUAGUCUUUAAACCAAUAGAUUGCAUCGGUUUAAAAGGCAAGACCGUCAAAUUGCGGGAAAGGGGUCAACAGCCGUUCAGUACCAAGUCUCAGGGGAAACUUUGAGAUGGCCUUGCAAAGGGUAUGGUAAUAAGCUGACGGACAUGGUCCUAACCACGCAGCCAAGUCCUAAGUCAACAGAUCUUCUGUUGAUAUGGAUGCAGUUCACAGACUAAAUGUCGGUCGGGGAAGAUGUAUUCUUCUCAUAAGAUAUAGUCGGACCUCUCCUUAAUGGGAGCUAGCGGAUGAAGUGAUGCAACACUGGAGCCGCUGGGAACUAAUUUGUAUGCGAAAGUAUAUUGAUUAGUUUUGGAGUACUCGUGGUCG
Procedure, shortened: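 Library with all eight P1ex-region intron nucleotides randomised, intron inside the knt kanamycin-resistance gene on pET-22b(+), in E. coli BL21(DE3). Cells grew overnight at 37°C or 30°C on LB agar with or without 25 μg/mL kanamycin (plus 100 μg/mL carbenicillin, 50 μM IPTG, 0.2% rhamnose), in six replicate transformations. Pooled colonies were amplicon-sequenced on Illumina HiSeq 2500. DiMSum fitness is the error-weighted combination of wild-type-normalised replicate fold changes, kanamycin versus none.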

Sequence: ACCUAGCAAUAUUACGCAAC
- self-splicing fitness (ln) (30 °C): -1.98 ± 0.16
- self-splicing fitness (ln) (37 °C): -0.895 ± 0.094

Sequence: UUGCAGCAAUAUUACGUAAU
- self-splicing fitness (ln) (30 °C): -2.83 ± 0.098
- self-splicing fitness (ln) (37 °C): -2.24 ± 0.14

Sequence: CCUCAGCAAUAUUACGAAGA
- self-splicing fitness (ln) (30 °C): -3.71 ± 0.3
- self-splicing fitness (ln) (37 °C): -2.31 ± 0.25

Sequence: UCCUAGCAAUAUUACGAUCG
- self-splicing fitness (ln) (30 °C): -3.36 ± 0.21
- self-splicing fitness (ln) (37 °C): -2.33 ± 0.26

Sequence: AACGAGCAAUAUUACGCUUC
- self-splicing fitness (ln) (30 °C): -3.1 ± 0.25
- self-splicing fitness (ln) (37 °C): -1.7 ± 0.3

Sequence: GACUAGCAAUAUUACGGUAG
- self-splicing fitness (ln) (30 °C): -0.551 ± 0.12
- self-splicing fitness (ln) (37 °C): -0.15 ± 0.14

Sequence: UGCCAGCAAUAUUACGCGGA
- self-splicing fitness (ln) (30 °C): -2.24 ± 0.1
- self-splicing fitness (ln) (37 °C): -1.32 ± 0.094

Sequence: CUUAAGCAAUAUUACGUUUC
- self-splicing fitness (ln) (30 °C): -3.98 ± 0.17
- self-splicing fitness (ln) (37 °C): -3.23 ± 0.28

Sequence: UGUCAGCAAUAUUACGGUGC
- self-splicing fitness (ln) (30 °C): -3.51 ± 0.43
- self-splicing fitness (ln) (37 °C): -2.74 ± 0.38

Sequence: GUGCAGCAAUAUUACGUAUC
- self-splicing fitness (ln) (30 °C): -1.69 ± 0.13
- self-splicing fitness (ln) (37 °C): -1.79 ± 0.13

Sequence: ACACAGCAAUAUUACGGCAU
- self-splicing fitness (ln) (30 °C): -1.12 ± 0.049
- self-splicing fitness (ln) (37 °C): 0.227 ± 0.062

Sequence: AGUCAGCAAUAUUACGUGAU
- self-splicing fitness (ln) (30 °C): -1.52 ± 0.077
- self-splicing fitness (ln) (37 °C): -0.719 ± 0.1

Sequence: CCGUAGCAAUAUUACGUGCC
- self-splicing fitness (ln) (30 °C): -4.11 ± 0.47
- self-splicing fitness (ln) (37 °C): -2.33 ± 0.28

Sequence: CUCCAGCAAUAUUACGGUAU
- self-splicing fitness (ln) (30 °C): -4.21 ± 0.22
- self-splicing fitness (ln) (37 °C): -3.58 ± 0.19

Sequence: GCACAGCAAUAUUACGCCAA
- self-splicing fitness (ln) (30 °C): -3.77 ± 0.25
- self-splicing fitness (ln) (37 °C): -2.56 ± 0.2

Sequence: AGUCAGCAAUAUUACGGCAA
- self-splicing fitness (ln) (30 °C): -0.287 ± 0.083
- self-splicing fitness (ln) (37 °C): -0.215 ± 0.081

Sequence: GGGUAGCAAUAUUACGAUUC
- self-splicing fitness (ln) (30 °C): -0.648 ± 0.12
- self-splicing fitness (ln) (37 °C): 0.268 ± 0.19

Sequence: GUCUAGCAAUAUUACGAGUG
- self-splicing fitness (ln) (30 °C): -1.99 ± 0.1
- self-splicing fitness (ln) (37 °C): -1.05 ± 0.1

Sequence: UCGAAGCAAUAUUACGAUAA
- self-splicing fitness (ln) (30 °C): -2.17 ± 0.13
- self-splicing fitness (ln) (37 °C): -1.13 ± 0.13

Sequence: GCAAAGCAAUAUUACGUCUA
- self-splicing fitness (ln) (30 °C): -0.983 ± 0.13
- self-splicing fitness (ln) (37 °C): -0.637 ± 0.11

Sequence: GCUUAGCAAUAUUACGCUUU
- self-splicing fitness (ln) (30 °C): -1.23 ± 0.064
- self-splicing fitness (ln) (37 °C): -0.413 ± 0.084

Sequence: UUAGAGCAAUAUUACGGGUG
- self-splicing fitness (ln) (30 °C): -3.1 ± 0.33
- self-splicing fitness (ln) (37 °C): -0.89 ± 0.2

Sequence: UUGCAGCAAUAUUACGACAG
- self-splicing fitness (ln) (30 °C): -0.32 ± 0.11
- self-splicing fitness (ln) (37 °C): 0.414 ± 0.15

Sequence: CCACAGCAAUAUUACGGGCC
- self-splicing fitness (ln) (30 °C): -4.14 ± 0.25
- self-splicing fitness (ln) (37 °C): -2.5 ± 0.18

Sequence: AACGAGCAAUAUUACGCCAU
- self-splicing fitness (ln) (30 °C): -2.91 ± 0.27
- self-splicing fitness (ln) (37 °C): -1.52 ± 0.27

Sequence: GCCAAGCAAUAUUACGGCGU
- self-splicing fitness (ln) (30 °C): -0.74 ± 0.067
- self-splicing fitness (ln) (37 °C): -0.453 ± 0.1

Sequence: GAUCAGCAAUAUUACGAGUA
- self-splicing fitness (ln) (30 °C): -1.2 ± 0.12
- self-splicing fitness (ln) (37 °C): -0.817 ± 0.092

Sequence: UAAGAGCAAUAUUACGUUCU
- self-splicing fitness (ln) (30 °C): -3.45 ± 0.28
- self-splicing fitness (ln) (37 °C): -1.55 ± 0.19

Sequence: CAACAGCAAUAUUACGCGAC
- self-splicing fitness (ln) (30 °C): -3.56 ± 0.12
- self-splicing fitness (ln) (37 °C): -1.5 ± 0.12

Sequence: UAAUAGCAAUAUUACGCGUA
- self-splicing fitness (ln) (30 °C): -1.85 ± 0.14
- self-splicing fitness (ln) (37 °C): -0.713 ± 0.12

Sequence: AUUAAGCAAUAUUACGAUGA
- self-splicing fitness (ln) (30 °C): -0.766 ± 0.11
- self-splicing fitness (ln) (37 °C): -0.613 ± 0.12

Sequence: GCGCAGCAAUAUUACGGAUG
- self-splicing fitness (ln) (30 °C): -1.72 ± 0.1
- self-splicing fitness (ln) (37 °C): -1.39 ± 0.12

Sequence: UUAAAGCAAUAUUACGUUCC
- self-splicing fitness (ln) (30 °C): -2.36 ± 0.22
- self-splicing fitness (ln) (37 °C): -0.947 ± 0.21

Sequence: CCUUAGCAAUAUUACGCAGU
- self-splicing fitness (ln) (30 °C): -3.81 ± 0.23
- self-splicing fitness (ln) (37 °C): -2.32 ± 0.23

Sequence: UGCGAGCAAUAUUACGACGU
- self-splicing fitness (ln) (30 °C): -2.92 ± 0.25
- self-splicing fitness (ln) (37 °C): -0.731 ± 0.17

Sequence: UCGGAGCAAUAUUACGCAGG
- self-splicing fitness (ln) (30 °C): -2.57 ± 0.44
- self-splicing fitness (ln) (37 °C): -2.28 ± 0.43

Sequence: AUACAGCAAUAUUACGCUUA
- self-splicing fitness (ln) (30 °C): -1.67 ± 0.12
- self-splicing fitness (ln) (37 °C): -0.741 ± 0.099

Sequence: AAAAAGCAAUAUUACGAUUG
- self-splicing fitness (ln) (30 °C): -1.86 ± 0.093
- self-splicing fitness (ln) (37 °C): -1.67 ± 0.13

Sequence: ACCCAGCAAUAUUACGCUAC
- self-splicing fitness (ln) (30 °C): -4.01 ± 0.27
- self-splicing fitness (ln) (37 °C): -2.38 ± 0.19

Sequence: CACAAGCAAUAUUACGGGUC
- self-splicing fitness (ln) (30 °C): -3.43 ± 0.1
- self-splicing fitness (ln) (37 °C): -2.2 ± 0.12

Sequence: UAGGAGCAAUAUUACGGUCA
- self-splicing fitness (ln) (30 °C): -2.65 ± 0.47
- self-splicing fitness (ln) (37 °C): -2.19 ± 0.26

Sequence: GUUGAGCAAUAUUACGGACG
- self-splicing fitness (ln) (37 °C): -1.42 ± 0.29

Sequence: CGACAGCAAUAUUACGCAAU
- self-splicing fitness (ln) (30 °C): -4.5 ± 0.33
- self-splicing fitness (ln) (37 °C): -2.81 ± 0.22

Sequence: AAACAGCAAUAUUACGCUGG
- self-splicing fitness (ln) (30 °C): -2.53 ± 0.12
- self-splicing fitness (ln) (37 °C): -2.62 ± 0.2

Sequence: AGCGAGCAAUAUUACGAUUC
- self-splicing fitness (ln) (30 °C): -1.93 ± 0.16
- self-splicing fitness (ln) (37 °C): -2.02 ± 0.27

Sequence: CGGGAGCAAUAUUACGGUUA
- self-splicing fitness (ln) (30 °C): -3.42 ± 0.25
- self-splicing fitness (ln) (37 °C): -2.69 ± 0.29

Sequence: AACGAGCAAUAUUACGUCUG
- self-splicing fitness (ln) (30 °C): -3.17 ± 0.2
- self-splicing fitness (ln) (37 °C): -1.63 ± 0.16
